Source: US20100129800A1, “POLYMERS AND THEIR USE AS FLUORESCENT LABELS” (priority 2007, published 2010)
Ends that are not written are not given here. Nct = N-((2S,3R)-1,3-dihydroxybutan-2-yl)-(4a,10a-dihydro-10,11-diazabenzo[b]fluoren-10-yl)acetamide monomer; Qut = N-(1,3-dihydroxybutan-2-yl)-10H-indolo[3,2-d]quinoline-11-carboxamide monomer; code p = not defined here; Qgt = not defined here

Assays:
[1] = system: duplex structure of DNA; assay: Melting experiments (DNA-duplex stabilization); type: physicochemical; conditions: 1 M NaCl, 10 mM sodium phosphate buffer of pH=7; for Tm(° C.): 260 nm, 1° C./min; for ΔTm (° C.): versus unmodified oligonucleotide
Description: Appropriate oligonucleotides were dissolved in a solution containing 1 M NaCl, 10 mM sodium phosphate buffer of pH=7. UV Absorption spectra and melting experiments (absorbance vs temperature) were recorded in 1-cm path length cell by using a spectrophotometer, with a temperature controller and a programmed temperature increase rate of 1° C./min. Melting curves were recorded at 260 nm, and melting temperatures were measured at the maximum of the first derivatives of the melting curves.

[2] = Fluorescent properties of duplexes carrying fluorophores at the 3′-end; type: physicochemical; conditions: oligonucleotide duplex carrying fluorophore at the 3′-end
Description: Solid supports carrying oligomers with L-threoninol and 3-aminopropan-1,2-diol backbones were introduced on a DNA synthesizer and oligonucleotides were assembled using standard protocols. After the assembly of the desired DNA sequence, supports were treated with concentrated ammonia at 55° C. for a minimum of 6 hrs yielding oligonucleotides carrying oligomers of fluorophores at the 3′-end.
Two oligonucleotide sequences were synthetized (sequence 1: 5′-[…]-3′ sequence 2: 5′-[…]-3′) carrying different fluorophores at the 3′-end. Solid supports containing dimer and trimer fluorophores (prepared in examples 28-31) and standard protocols for oligonucleotide synthesis were used in order to obtain these modified oligonucleotides (Table 2). Ammonia deprotection was performed at 55° C. for 6 hours. The resulting solutions were concentrated to dryness. Then, the residue was dissolved in water and desalted through a NAP-10 column. Fractions containing oligonucleotides were analysed by HPLC and characterized by UV and MS spectrometry.
Next, the fluorescent properties of duplexes carrying fluorophores at the 3′-end was determined and the results are shown in Table 3: […]

Row | Substance | Tm(° C.) [1] | ΔTm (° C.) [1] | Emission (nm) [2] | Excitation (nm) [2]
1 | TTCCGGAA-p-Nct: oligonucleotide 5′-TTCCGGAA-3′ carrying fluorophore Nct at the 3′-end (DNA TTCCGGAA-{code p-Nct}; not fully specified; cysteine pairing not given here; reading uncertain; also: DNA oligonucleotide with 3'-phosphate-linked Nct) | 46 °C | +11 °C | 442 nm | 267 nm
2 | TTCCGGAA-p-Qgt: oligonucleotide 5′-TTCCGGAA-3′ carrying fluorophore Qgt at the 3′-end (DNA TTCCGGAA-{code p-Qgt}; not fully specified; cysteine pairing not given here; reading uncertain; also: DNA oligonucleotide with 3'-phosphate-linked Qgt) | 50 °C | +15 °C | 491 nm | 350 nm
3 | TTCCGGAA-p-Qut-p-Qut: oligonucleotide 5′-TTCCGGAA-3′ carrying dimer Qut-p-Qut at the 3′-end (DNA TTCCGGAA-{code p-Qut-code p-Qut}; not fully specified; cysteine pairing not given here; reading uncertain; also: DNA oligonucleotide with 3'-Qut-p-Qut dimer) | 48 °C | +13 °C | 490 nm | 349 nm
4 | TTCCGGAA-p-Qut: oligonucleotide 5′-TTCCGGAA-3′ carrying fluorophore Qut at the 3′-end (DNA TTCCGGAA-{code p-Qut}; not fully specified; cysteine pairing not given here; reading uncertain; also: DNA oligonucleotide with 3'-phosphate-linked Qut) | 44 °C | +9 °C | 492 nm | 349 nm
